Literature values, collected in patent US7708978B2, “Targeted hydrophilic polymer, binders with interferon and medical composite comprising above binders” (Beijing Jiankai Technology Co., Ltd., priority 2002, dated 2010).

Conditions: in vivo

In the case of interferon α, the circulation half-life is listed as 4 to 8 h.
